± gives the uncertainty stated by the source.
Experiment: self-splicing fitness, log relative to wild type (ln ratio); higher = more splicing; Tetrahymena group I intron in knt gene, E. coli kanamycin selection, DiMSum; sequences stand for … in CUCUCU…GGAGGGAAAAGUUAUCAGGCAUGCACCUGGUAGCUAGUCUUUAAACCAAUAGAUUGCAUCGGUUUAAAAGGCAAGACCGUCAAAUUGCGGGAAAGGGGUCAACAGCCGUUCAGUACCAAGUCUCAGGGGAAACUUUGAGAUGGCCUUGCAAAGGGUAUGGUAAUAAGCUGACGGACAUGGUCCUAACCACGCAGCCAAGUCCUAAGUCAACAGAUCUUCUGUUGAUAUGGAUGCAGUUCACAGACUAAAUGUCGGUCGGGGAAGAUGUAUUCUUCUCAUAAGAUAUAGUCGGACCUCUCCUUAAUGGGAGCUAGCGGAUGAAGUGAUGCAACACUGGAGCCGCUGGGAACUAAUUUGUAUGCGAAAGUAUAUUGAUUAGUUUUGGAGUACUCGUGGUCG
Summary of the method: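 Colonies from six replicate transformations of E. coli BL21(DE3) were pooled and amplicon-sequenced on an Illumina HiSeq 2500. The library placed an intron with all eight P1ex-region nucleotides randomised inside the knt kanamycin-resistance gene on pET-22b(+), and cells grew overnight at 37°C or 30°C on LB agar with or without 25 μg/mL kanamycin (plus 100 μg/mL carbenicillin, 50 μM IPTG, 0.2% rhamnose). Fitness is the DiMSum error-weighted combination of wild-type-normalised replicate fold changes, kanamycin versus none.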

| Sequence | self-splicing fitness (ln) (30 °C) | self-splicing fitness (ln) (37 °C) |
| --- | --- | --- |
| UCACAGCAAUAUUACGGUUA | -0.541 ± 0.072 | 0.291 ± 0.08 |
| UCACAGCAAUAUUACGUAAU | -3.25 ± 0.21 | -2.54 ± 0.29 |
| UCACAGCAAUAUUACGUAUA | -2.64 ± 0.12 | -1.37 ± 0.1 |
| UCACAGCAAUAUUACGUAUC | -4.32 ± 0.46 | -2.75 ± 0.19 |
| UCACAGCAAUAUUACGUCUA | -1.25 ± 0.077 | -0.331 ± 0.075 |
| UCAGAGCAAUAUUACGAAGU | -3.13 ± 0.33 | – |
| UCAGAGCAAUAUUACGACAU | -4.002 ± 0.035 | -2.6 ± 0.045 |
| UCAGAGCAAUAUUACGACUG | -1.67 ± 0.19 | -0.645 ± 0.2 |
| UCAGAGCAAUAUUACGAUGU | -1.87 ± 0.077 | -1.41 ± 0.093 |
| UCAGAGCAAUAUUACGCAAA | -1.85 ± 0.23 | -2.03 ± 0.46 |
| UCAGAGCAAUAUUACGCAAU | -2.77 ± 0.24 | -3.06 ± 0.35 |
| UCAGAGCAAUAUUACGCUGC | – | -0.708 ± 0.32 |
| UCAGAGCAAUAUUACGGAAC | -2.43 ± 0.2 | -2.49 ± 0.26 |
| UCAGAGCAAUAUUACGGCGC | -1.6 ± 0.2 | -2.6 ± 0.45 |
| UCAGAGCAAUAUUACGGCGU | -3.42 ± 0.22 | -2.05 ± 0.18 |
| UCAGAGCAAUAUUACGUCAA | -3.81 ± 0.4 | -2.13 ± 0.23 |
| UCAGAGCAAUAUUACGUCAC | -2.51 ± 0.18 | – |
| UCAGAGCAAUAUUACGUCGA | -1.11 ± 0.072 | -0.44 ± 0.11 |
| UCAGAGCAAUAUUACGUCUU | -3.53 ± 0.32 | -2.53 ± 0.36 |
| UCAGAGCAAUAUUACGUUAU | -2.84 ± 0.19 | -3.42 ± 0.4 |
| UCAGAGCAAUAUUACGUUUC | -3.15 ± 0.23 | -3.04 ± 0.38 |
| UCAUAGCAAUAUUACGAACG | -0.967 ± 0.085 | -0.602 ± 0.12 |
| UCAUAGCAAUAUUACGACCA | -0.368 ± 0.34 | -0.568 ± 0.31 |
| UCAUAGCAAUAUUACGAGAG | -2.96 ± 0.24 | -2.44 ± 0.22 |
| UCAUAGCAAUAUUACGCAAC | -3.77 ± 0.39 | -1.48 ± 0.32 |

| Sequence | self-splicing fitness (ln) (30 °C) | self-splicing fitness (ln) (37 °C) |
| --- | --- | --- |
| UCAUAGCAAUAUUACGCAGC | -3.15 ± 0.35 | -1.03 ± 0.23 |
| UCAUAGCAAUAUUACGCGAA | -2.95 ± 0.23 | -1.51 ± 0.15 |
| UCAUAGCAAUAUUACGCGCA | 0.0597 ± 0.12 | 0.225 ± 0.12 |
| UCAUAGCAAUAUUACGCGGU | -3.43 ± 0.25 | -2.2 ± 0.25 |
| UCAUAGCAAUAUUACGCUAG | -3.15 ± 0.22 | -1.34 ± 0.2 |
| UCAUAGCAAUAUUACGCUCG | -0.651 ± 0.15 | -0.277 ± 0.17 |
| UCAUAGCAAUAUUACGCUGG | -3.05 ± 0.19 | -2.3 ± 0.16 |
| UCAUAGCAAUAUUACGGAGA | -1.95 ± 0.17 | -0.994 ± 0.13 |
| UCAUAGCAAUAUUACGGCCC | – | -1.11 ± 0.43 |
| UCAUAGCAAUAUUACGGCUA | -2.69 ± 0.27 | -2.37 ± 0.39 |
| UCAUAGCAAUAUUACGGGCU | – | -2.19 ± 0.32 |
| UCAUAGCAAUAUUACGGUGU | -3.51 ± 0.21 | -1.27 ± 0.13 |
| UCAUAGCAAUAUUACGUAAC | -3.57 ± 0.37 | -1.6 ± 0.31 |
| UCAUAGCAAUAUUACGUACG | -1.57 ± 0.12 | -0.499 ± 0.13 |
| UCAUAGCAAUAUUACGUCUG | -1.16 ± 0.081 | -0.895 ± 0.1 |
| UCAUAGCAAUAUUACGUCUU | -3.28 ± 0.24 | -3.53 ± 0.32 |
| UCAUAGCAAUAUUACGUGCA | -1.06 ± 0.082 | 0.377 ± 0.092 |
| UCAUAGCAAUAUUACGUGCC | -3.48 ± 0.41 | -1.34 ± 0.23 |
| UCAUAGCAAUAUUACGUUGA | -3.91 ± 0.29 | -2.75 ± 0.16 |
| UCCAAGCAAUAUUACGAACC | -1.65 ± 0.25 | – |
| UCCAAGCAAUAUUACGAUGC | -2.69 ± 0.31 | – |
| UCCAAGCAAUAUUACGCCCG | -2.32 ± 0.26 | – |
| UCCAAGCAAUAUUACGCGUA | -0.121 ± 0.056 | 0.286 ± 0.06 |
| UCCAAGCAAUAUUACGCGUU | -4.5 ± 0.19 | -2.33 ± 0.15 |
| UCCAAGCAAUAUUACGCUGU | -2.3 ± 0.14 | -2.25 ± 0.17 |

| Sequence | self-splicing fitness (ln) (30 °C) | self-splicing fitness (ln) (37 °C) |
| --- | --- | --- |
| UCCAAGCAAUAUUACGCUUU | -3.8 ± 0.18 | -2.16 ± 0.19 |
| UCCAAGCAAUAUUACGGCGC | -2.4 ± 0.14 | -2.5 ± 0.15 |
| UCCAAGCAAUAUUACGGGAU | -3.88 ± 0.22 | -2.52 ± 0.16 |
| UCCAAGCAAUAUUACGGGUA | -0.53 ± 0.062 | 0.199 ± 0.066 |
| UCCAAGCAAUAUUACGGUUG | -3.43 ± 0.13 | -3.04 ± 0.19 |
| UCCAAGCAAUAUUACGUAAU | -1.94 ± 0.11 | -0.725 ± 0.14 |
| UCCAAGCAAUAUUACGUACC | -2.68 ± 0.19 | -2.18 ± 0.26 |
| UCCAAGCAAUAUUACGUCAU | -3.09 ± 0.14 | -1.39 ± 0.11 |
| UCCAAGCAAUAUUACGUGAC | -3.7 ± 0.3 | -3.17 ± 0.35 |
| UCCCAGCAAUAUUACGAAAA | -2.38 ± 0.2 | -0.834 ± 0.18 |
| UCCCAGCAAUAUUACGAACG | -2.94 ± 0.31 | -2.39 ± 0.29 |
| UCCCAGCAAUAUUACGAAUA | -2.11 ± 0.1 | -1.42 ± 0.11 |
| UCCCAGCAAUAUUACGACCC | -2.89 ± 0.31 | -2.44 ± 0.35 |
| UCCCAGCAAUAUUACGAGCU | -3.05 ± 0.17 | -2.18 ± 0.2 |
| UCCCAGCAAUAUUACGAUAU | -3.15 ± 0.18 | -1.74 ± 0.22 |
| UCCCAGCAAUAUUACGAUGA | -0.0138 ± 0.055 | 0.23 ± 0.069 |
| UCCCAGCAAUAUUACGCAAG | -3.45 ± 0.16 | -2.69 ± 0.21 |
| UCCCAGCAAUAUUACGCACA | -1 ± 0.071 | -0.318 ± 0.095 |
| UCCCAGCAAUAUUACGCACC | – | -1.21 ± 0.35 |
| UCCCAGCAAUAUUACGCCCA | -1.5 ± 0.18 | -0.396 ± 0.14 |
| UCCCAGCAAUAUUACGCUAC | – | -2.27 ± 0.32 |
| UCCCAGCAAUAUUACGCUGG | -3.94 ± 0.16 | -2.62 ± 0.16 |
| UCCCAGCAAUAUUACGCUUC | -2.73 ± 0.19 | -2.76 ± 0.48 |
| UCCCAGCAAUAUUACGCUUG | -3.31 ± 0.15 | -2.4 ± 0.19 |
| UCCCAGCAAUAUUACGGCAA | -0.595 ± 0.1 | 0.128 ± 0.11 |

| Sequence | self-splicing fitness (ln) (30 °C) | self-splicing fitness (ln) (37 °C) |
| --- | --- | --- |
| UCCCAGCAAUAUUACGGGAG | -3.44 ± 0.14 | -2.01 ± 0.11 |
| UCCCAGCAAUAUUACGGGCA | -0.512 ± 0.082 | -0.2 ± 0.097 |
| UCCCAGCAAUAUUACGGUCA | -0.0309 ± 0.062 | 0.226 ± 0.072 |
| UCCCAGCAAUAUUACGUAUC | -3.32 ± 0.29 | -1.35 ± 0.2 |
| UCCCAGCAAUAUUACGUCUA | -2.5 ± 0.21 | -2.12 ± 0.22 |
| UCCCAGCAAUAUUACGUUCC | -2.26 ± 0.21 | -2.44 ± 0.27 |
| UCCGAGCAAUAUUACGAGAA | -1.91 ± 0.35 | -2.27 ± 0.38 |
| UCCGAGCAAUAUUACGAGAU | -3.41 ± 0.24 | -2.02 ± 0.29 |
| UCCGAGCAAUAUUACGAUUA | -1.94 ± 0.28 | -1.72 ± 0.26 |
| UCCGAGCAAUAUUACGCACA | -3.21 ± 0.22 | -0.221 ± 0.13 |
| UCCGAGCAAUAUUACGCAUG | -2.8 ± 0.32 | -2.36 ± 0.3 |
| UCCGAGCAAUAUUACGCCCA | -4.21 ± 0.36 | -2.83 ± 0.35 |
| UCCGAGCAAUAUUACGCCUC | – | -1.34 ± 0.33 |
| UCCGAGCAAUAUUACGCGAC | -2.63 ± 0.41 | -1.58 ± 0.4 |
| UCCGAGCAAUAUUACGCGGU | -3.33 ± 0.26 | -1.58 ± 0.17 |
| UCCGAGCAAUAUUACGGAAC | -2.97 ± 0.33 | – |
| UCCGAGCAAUAUUACGGAUG | -4.09 ± 0.35 | -1.77 ± 0.2 |
| UCCGAGCAAUAUUACGGCAA | -1.43 ± 0.11 | -0.233 ± 0.13 |
| UCCGAGCAAUAUUACGGCGA | -0.0162 ± 0.1 | -0.0341 ± 0.12 |
| UCCGAGCAAUAUUACGGGAG | -3.81 ± 0.22 | -2.79 ± 0.19 |
| UCCGAGCAAUAUUACGGGGA | -1.93 ± 0.15 | -0.603 ± 0.11 |
| UCCGAGCAAUAUUACGGUAA | -2.21 ± 0.18 | -1.08 ± 0.12 |
| UCCGAGCAAUAUUACGGUCC | -3.08 ± 0.24 | -3.35 ± 0.33 |
| UCCGAGCAAUAUUACGUGCG | -3.49 ± 0.43 | -2.63 ± 0.34 |
